The target of this assay is T1, Recombinant human CD28 (human, UniProt P10747 19-152, limits assumed).
T1 construct: also called CD28 molecule
Briefly: BIACORE, recombinant human CD28 immobilized. For orientation: SPR reads the build-up and loss of mass on a sensor chip optically.

Broadly, the Kd is the constant that tells how readily two partners part at equilibrium.

Source text: Recombinant human CD28 was immobilized on the biosensor (BIACORE) detector.

B1: CD28.3 scFv/α1-antitrypsin fusion protein (other)
chain: DYKDIVKLQQSGAELVKPGASVRLSCKASGYTFTEYIIHWIKLRSGQGLEWIGWFYPGSNDIQYNAKFKGKATLTADKSSSTVYMELTGLTSEDSAVYFCARRDDFSGYDALPYWGQGTMVTVSSGGGGSGGGGSGGGGSDIQMTQSPASLSVSVGETVTITCRTNENIYSNLAWYQQKQGKSPQLLIYAATHLVEGVPSRFSGSGSGTQYSLKITSLQSEDFGNYYCQHFWGTPCTFGGGTKLEIKRTVAAPSEFNKITPNLAEFAFSLYRQLAHQSNSTNIFFSPVSIATAFAMLSLGTKADTHDEILEGLNFNLTEIPEAQIHEGFQELLRTLNQPDSQLQLTTGNGLFLSEGLKLVDKFLEDVKKLYHSEAFTVNFGDTEEAKKQINDYVEKGTQGKIVDLVKELDRDTVFALVNYIFFKGKWERPFEVKDTEEEDFHVDEVTTVKVPMMKRLGMFNIQHCKKLSSWVLLMKYLGNATAIFFLPDEGKLQHLENELTHDIITKFLENEDRRSASLHLPKLSITGTYDLKSVLGQLGITKVFSNGADLSGVTEEAPLKLSKAVHKAVLTIDEKGTEAAGAMFLEAIPMSIPPEVKFNKPFVFLMIEQNTKSPLFMGKVVNPTQKLEGEFEQKLISEEDLNHHHHH
notes: The pIG6 product would also carry DYKD at the N-terminus; not shown: c-myc marker and polyhistidine marker of the vector (pIG6 or pSECTagB)
Turning to B1, the Ka is 2.86e+09 M⁻¹ and the Kd was 349 pM.
